Test results as given in patent US20140017242A1, “ANTI-BRADYKININ B2 RECEPTOR (BKB2R) MONOCLONAL ANTIBODY” (Diamedica, Inc., priority 2010, published 2014).

What was measured:
Wistar rats = experiment: Acute effects on blood pressure in anesthetized Wistar rats; type: in vivo, rat; settings: single dose 0.5 mg/kg IV
Method: Male Wistar rats (Charles River Laboratories, Boston, Mass.) were 7.0 to 7.6 weeks old, weighed an average of 245 grams, and were maintained on Purina 5001 rat chow ad libitum. Following one week of laboratory acclimatization, treatments femoral catheter surgery and drug administration were conducted within a one-day period with measurements commencing the same day and continued during an ongoing three-week follow-up period. Treatment groups were (1) 3H3H3 (anti-BKB2R) antibody (n=8), (2) 3H3H9 (anti-BKB2R) antibody (n=8), (3) 1F2G7 (anti-BKB2R) antibody, (n=3), (4) 5F12G1 (anti-BKB2R) antibody (n=8).
Rats were anesthetized with ketamine (30 mg/kg, IM) and Inactin (50 mg/kg, IP). Cannulae were implanted in the femoral artery for blood pressure measurements and in the femoral vein for drug administration. Arterial line was filled with saline with 10 UI/ml of heparin to keep the line patent over the experiment and avoid frequent flushing of the arterial line. After 15-20 minutes of equilibration period, and once the blood pressure was stable, a baseline blood pressure was recorded for 15 minutes; then, drugs were administered and its effects on blood pressure assessed. For the antibodies a single dose (0.5 mg/kg) was administered and blood pressure recorded for three hours. All drugs were diluted in saline or PBS to achieve a total volume of 1 ml/kg. Drugs were slowly administered, on a 40-sec period on average. Animals were kept at 37° C. during the experiment. At the end of the experiments, animals were euthanized and no blood or tissues were collected.
Baseline blood pressure, length of blood pressure response to drug, maximum blood pressure change and Area Under the Curve (AUC) for the blood pressure response. Blood pressure at 1, 2 and 3 h after infusion for the antibodies.

ZDF fa/fa rats = experiment: 21-day ZDF fa/fa study: tail cuff blood pressure and heart rate; type: in vivo, rat
Method: Animals. Male ZDF fa/fa rats were obtained from CRL (Kingston, N.Y.). Upon arrival, rats were seven weeks of age. The rats were housed individually per cage in a room with a photo cycle of 12 hours of light and 12 hours of dark and an ambient temperature of 70-72° F. and fed on regular rodent diet and water ad libitum. At the age of eleven weeks, rats were divided into six groups (Table 5) of eight rats per group based on fasting blood glucose levels. A sub-group of four rats per group was maintained in parallel to the main groups and was dosed similarly for twenty-one days for a hyperinsulinemic-euglycemic clamp study. […]
An oral glucose tolerance test (OGTT) was performed on Day 0, 7, 14 and 21 for each group of the study. […] Body weight, food and water intake were measured twice a week. Blood pressure and heart rates were monitored on Day 0, 7, 14 and 21 using a non-invasive tail cuff method (with five readings per rat taken and then averaged). […] Glycated (Glycosylated) hemoglobin (HbA1c) was measured at the end of the study. […]
Blood pressure measurements were performed using a blood pressure monitor and data acquisition software. […] The VPR sensor utilized a differential pressure transducer to non-invasively measure the blood volume in the tail, and determined systolic blood pressure, diastolic blood pressure, and heart rate. […]

BKB2 receptor = molecular target: T1, BKB2 receptor (Homo sapiens, UniProt P30411); experiment: Intracellular calcium release in CHO-K1/B2/Gα15 cells (FLIPR Calcium 4); type: cell-based; design: expressed in transfected cells; settings: 0.5 mg/ml; normalized to the positive control; mean+/−SD, n=2
T1 sequence (P30411 1-391): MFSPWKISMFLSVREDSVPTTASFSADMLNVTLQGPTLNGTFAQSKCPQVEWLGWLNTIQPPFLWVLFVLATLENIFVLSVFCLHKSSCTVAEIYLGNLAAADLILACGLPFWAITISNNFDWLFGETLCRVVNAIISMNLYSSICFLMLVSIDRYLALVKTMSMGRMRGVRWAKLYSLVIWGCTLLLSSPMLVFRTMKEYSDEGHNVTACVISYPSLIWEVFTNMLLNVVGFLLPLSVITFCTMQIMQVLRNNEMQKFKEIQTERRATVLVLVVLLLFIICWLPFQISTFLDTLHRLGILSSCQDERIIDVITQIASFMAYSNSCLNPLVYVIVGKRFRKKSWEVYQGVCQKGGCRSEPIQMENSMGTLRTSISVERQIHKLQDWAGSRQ
Method: A stable CHO cell line expressing the human BKB2 receptor (CHO-K1/B2/Gα15) was used for the screening. The antibody was diluted to five different concentrations, from 0.5 mg/ml, via three-fold dilution increments, and screened on duplicate cell samples.
Expression and functional activity of the human BKB2 receptor in the CHO-K1/B2/Gα15 cell line were validated by exposure to the positive control, bradykinin.
To perform the assay, CHO-K1/B2/Gα15 cells were seeded in wells of a 384-well black-wall, clear-bottom plate at a density of 20,000 cells per well in 20 μL of growth medium 20 hours prior to the day of experiment, and maintained at 37° C./5% CO2. 20 μL of dye-loading solution (FLIPR™ Calcium 4 assay kit, Molecular Devices, Sunnyvale, Calif.) was added into each well and the plate was placed into a 37° C. incubator for 60 minutes, followed by 15 minutes at room temperature. The total reading time was 120 sec. After a 20-second reading to establish the baseline, the antibody or agonist were added to selected wells and the fluorescence signal was captured for another 100 seconds (21 s to 120 s). Readings from wells containing cells stimulated with assay buffer (0.03% Na3N PBS) containing 1% DMSO were chosen as the background values for screening; readings from wells containing cells stimulated with the agonist bradykinin (at 10 uM) were chosen as the positive control.

B1: 5F12G1: murine monoclonal anti-BKB2R antibody (IgG2b,κ), VH comprising SEQ ID NO:1, VL comprising SEQ ID NO:2 (antibody, listed as Mus musculus, V domains shown)
VH: EVKLEESGGGLVQPGGSMKLSCVVSGFTFSDYWMSWVRHSPEMGLEWVAEIRLKSDNYATHYAESVKGRFTISRDDSKSRLYLQINSLRGEDTGIYYCTRDYYAMEYWGQGTSVTVSS
VL: DVVMTQTPLSLPVSLGDQASISCRSSQTIVHSNGKTYLEWYLQKPGQSPKLLIYKVSNRFSGVPDRFSGSGSGTEFTLKISRVETEDLGVYYCFQASHVPYTFGGGTKLEIK
For B1, the “Peak Blood Pressure Response (mm HG)” value (Wistar rats) was 57 +/− 4 mm HG, the “Length (sec) of Blood Pressure Response” value (Wistar rats; until blood pressure returned to baseline) was 168 ± 29 s and the “blood pressure at one hour after administration” value (Wistar rats; baseline 109±3 mm Hg) was 95±3 mm Hg. For the same molecule, the “blood pressure at three hours after administration” value (Wistar rats; baseline 109±3 mm Hg) was 95±3 mm Hg, the “blood pressure at two hours after administration” value (Wistar rats; baseline 109±3 mm Hg) was 94±3 mm Hg and the “increase in systolic blood pressure from baseline” value (ZDF fa/fa rats; 0.2 mg/kg s.c. every 3 days (highest dose), Day 0 to Day 21) was 0.12+/−4.4 mm Hg. For the same molecule, the “systolic, diastolic blood pressure and heart rate measurements relative to the control group MG2b-57” value (ZDF fa/fa rats; all 5F12G1 doses, day 21) was “below the control group” and the percentage of activation (BKB2 receptor) was 72.7+/−3.5%.
